The target of assay [1] is Nucleosome Core Particle NCP147, P04908;P68431;P62805. Description: EMSA. The settings on record: 2 µM Cyclin B1; parent: est. 18; read off a plot. For orientation: In EMSA bound probe runs differently from free probe, usually more slowly.
Assay [2] concerns the target Anaphase Promoting Complex/Cyclosome (APC/C) with APC8-mScarlet, endogenous (human (endogenous in RPE-1)) (UniProt Q9UJX2). Description: fluorescence cross-correlation spectroscopy (FCCS); living RPE-1 Cyclin B1-mEmerald+/+; APC8-mScarlet+/+ cells in metaphase (untreated; similar with MG132), measured at the chromatin (chromosomes); in vivo KD.
Assay [3] has the same target. Description: fluorescence cross-correlation spectroscopy (FCCS); living RPE-1 Cyclin B1-mEmerald+/+; APC8-mScarlet+/+ cells in metaphase (untreated; similar with MG132), measured in the cytoplasm; in vivo KD.
For assay [4], the target named is Anaphase Promoting Complex/Cyclosome (APC/C), endogenous, with APC8-mScarlet (human (endogenous in RPE-1)) (UniProt Q9UJX2). Description: fluorescence cross-correlation spectroscopy (FCCS); in living RPE-1 Cyclin B1-mEmerald+/+; APC8-mScarlet+/+ cells (metaphase by p-0009), measured at the spindle fibres; apparent.
Assay [5] shares this target. Description: fluorescence cross-correlation spectroscopy (FCCS); in living RPE-1 Cyclin B1-mEmerald+/+; APC8-mScarlet+/+ cells (metaphase by p-0009), measured at the spindle poles; apparent.
Assay [6] has the same target. The assay can be described thus: fluorescence cross-correlation spectroscopy (FCCS); in living RPE-1 Cyclin B1-mEmerald+/+; APC8-mScarlet+/+ cells (metaphase by p-0009), measured at the chromosomes; apparent.
Assay [7] shares this target. The assay can be described thus: fluorescence cross-correlation spectroscopy (FCCS); in living RPE-1 Cyclin B1-mEmerald+/+; APC8-mScarlet+/+ cells (metaphase by p-0009), measured in the cytoplasm; apparent.

As to “Cyclin B1^WT-StrepII, full length (from UniProt P14635) R4E; R7E”, in assay [1], the other: Unbound NCP147 (%) is 54%.
Still for that read-out and setting: in the case of “Cyclin B1^WT-StrepII, full length (from UniProt P14635) L3A; R4A; V5A; T6A; R7A” it was 85%.
For “Cyclin B1-mEmerald (endogenous, both alleles tagged) (from UniProt P14635 1-433) (natural protein)”, the figures for the Kd in assay [2] and in assay [3] were 80 nM and 180 nM, respectively.
For “Cyclin B1-mEmerald (endogenous) (from UniProt P14635 1-433) (natural protein)”, the Kd in assay [4] was 71 nM; in assay [5], 81 nM; in assay [6] it was 83 nM; in assay [7], 176 nM.

The values above are taken from paper PMC11445581.
